Source: paper PMC3963918, “CCHCR1 Interacts Specifically with the E2 Protein of Human Papillomavirus Type 16 on a Surface Overlapping BRD4 Binding” (PLoS ONE, 2014)

Legend:
[1] = target: T1, HPV16 E2 protein fused to Gaussia luciferase fragment GL2 (human papillomavirus type 16, UniProt P03120 1-365); experiment: split reporter (BiFC, NanoBiT); details: partners not purified
T1 construct: source: 293 T cells, transfected (pSPICA-N2), in lysate
T1 sequence: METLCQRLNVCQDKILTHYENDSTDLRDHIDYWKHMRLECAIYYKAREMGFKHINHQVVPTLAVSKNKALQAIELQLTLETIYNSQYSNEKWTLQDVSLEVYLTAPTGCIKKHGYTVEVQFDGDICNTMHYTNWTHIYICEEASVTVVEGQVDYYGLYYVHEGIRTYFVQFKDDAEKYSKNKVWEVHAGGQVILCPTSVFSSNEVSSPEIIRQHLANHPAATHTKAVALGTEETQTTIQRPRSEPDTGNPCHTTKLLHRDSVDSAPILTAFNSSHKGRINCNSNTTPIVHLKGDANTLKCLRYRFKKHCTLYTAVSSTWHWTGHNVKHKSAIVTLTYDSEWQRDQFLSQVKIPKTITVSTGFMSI

[2] = target: T1, HPV16 E2 protein fused to Gaussia …; experiment: split reporter (BiFC, NanoBiT); GPCA competition: GL1 and GL2 partners plus a 3XFlag-tagged challenging protein (0.5 ug of each plasmid) in 293 T cells, 12-well plates, harvested 40 h after transfection; NLR relative to empty plasmid; details: partners not purified

B1: CCHCR1 (Coiled-Coil alpha HeliCal Rod protein 1), polypeptide from amino acid 137 to the stop codon, fused to Gaussia luciferase fragment GL1 (domain or fragment)
chain: KAGRAEAEGLRAALAGAEVVRKNLEEGSQRELEEVQRLHQEQLSSLTQAHEEALSSLTSKAEGLEKSLSSLETRRAGEAKELAEAQREAELLRKQLSKTQEDLEAQVTLVENLRKYVGEQVPSEVHSQTWELERQKLLETMQHLQEDRDSLHATAELLQVRVQSLTHILALQEEELTRKVQPSDSLEPEFTRKCQSLLNRWREKVFALMVQLKAQELEHSDSVKQLKGQVASLQEKVTSQSQEQAILQRSLQDKAAEVEVERMGAKGLQLELSRAQEARRRWQQQTASAEEQLRLVVNAVSSSQIWLETTMAKVEGAAAQLPSLNNRLSYAVRKVHTIRGLIARKLALAQLRQESCPLPPPVTDVSLELQQLREERNRLDAELQLSARLIQQEVGRAREQGEAERQQLSKVAQQLEQELQQTQESLASLGLQLEVARQGQQESTEEAASLRQELTQQQELYGQALQEKVAEVETRLREQLSDTERRLNEARREHAKAVVSLRQIQRRAAQEKERSQELRRLQEEARKEEGQRLARRLQELERDKNLMLATLQQEGLLSRYKQQRLLTVLPSLLDKKKSVVSSPRPPECSASAPVAAAVPTRESIKGSLSVLLDDLQDLSEAISKEEAVCQGDNLDRCSSSNPQMSS
notes: also called Pg8; SBP
[1]
  NLR (Normalized Luminescence Ratio): ~250

B2: 3XFLAG-tagged CCHCR1, shorter E2-interacting isoform (amino acid 137 to the stop codon) (domain or fragment)
chain: B1 chain
notes: also called Flag-CCHCR1; 3XFLAG CCHCR1; source: 293 T cells, transfected (pCiNeo-3XF), in lysate
[2]
  fold decrease of the NLR of HPV16 E2 with BRD4 in the presence of CCHCR1: 5 fold
